The source of these data is article PMC6474823 (Molecular cell, 2019).

The target of test [1] is Src^FL WT (full-length Src, residues 1-536, non-phosphorylated, lacking an N-terminal myristoyl group) (human, UniProt P12931 1-536). Briefly: pull-down.
Test [2] has as its target Src^CD WT (catalytic domain of Src, residues 261-536) (human, UniProt P12931 261-536). Briefly: pull-down.

Turning to MGSNKSKPKDASQRRRSLLPETG (domain or fragment, human) [SH4^SNAP WT (residues 1-18 of Src fused to the N-terminus of SNAP-tag through a LPETG linker)], the binding result in test [1] and in test [2] was “binds” throughout.
